# Starred links: 1 amine or outer side, 2 acyl side, 3 side chain; linkers in the order of their positions; H or OH if unused. Positions of bridges follow the written chain, without caps; N, C: chain ends. Non-standard residues stand in square brackets, D forms with d. Groups on a side chain read outwards from the residue. *: point of attachment. C20 diacid = O=C(O)CCCCCCCCCCCCCCCCCCC(=O)*; Trp(1-Me) = Cn1cc(C[C@H](N)C(=O)O)c2ccccc21; C18 diacid = O=C(O)CCCCCCCCCCCCCCCCC(=O)*; C16 diacid = O=C(O)CCCCCCCCCCCCCCC(=O)*; γGlu = O=C(O)[C@H](CCC(=O)[*:2])N[*:1]; AEEA = NCCOCCOCC(=O)O; Sar = CNCC(=O)O
# B1: Compound 53 (peptide)
# peptide: Ac-EGSAFCI[Trp(1-Me)]QDWGEHRC[Sar]E-NH2
# modifications: disulfide 6-16
# SMILES: CC[C@H](C)[C@@H]1NC(=O)[C@@H](NC(=O)[C@H](Cc2ccccc2)NC(=O)[C@H](C)NC(=O)[C@H](CO)NC(=O)CNC(=O)[C@H](CCC(=O)O)NC(C)=O)CSSC[C@@H](C(=O)N(C)CC(=O)N[C@@H](CCC(=O)O)C(N)=O)NC(=O)[C@H](CCCNC(=N)N)NC(=O)[C@H](Cc2c[nH]cn2)NC(=O)[C@H](CCC(=O)O)NC(=O)CNC(=O)[C@H](Cc2c[nH]c3ccccc23)NC(=O)[C@H](CC(=O)O)NC(=O)[C@H](CCC(N)=O)NC(=O)[C@H](Cc2cn(C)c3ccccc23)NC1=O
# B2: Compound 95 (peptide)
# peptide: ICIWQDWGEHRCTEGK
# modifications: N-acetyl; C-terminal amide; disulfide C2-C12; K16 side chain bears (15-carboxy-pentadecanoyl)-[(Piperazine-1-yl)-acetyl][Peg3][Peg3]
# B3: Compound 128 (peptide)
# peptide: Ac-SEFCI[Trp(1-Me)]QDWGEHRC[Sar]EGE[AEEA][AEEA]K([γGlu-Gly-γGlu-C20 diacid])-NH2
# modifications: disulfide 4-14
# notes: also called comp 128
# B4: Compound 96 (peptide)
# peptide: Ac-ICIWQDWGEHRCTEGK([AEEA-AEEA-γGlu-C18 diacid])-NH2
# modifications: disulfide 2-12
# SMILES: CC[C@H](C)[C@H](NC(C)=O)C(=O)N[C@H]1CSSC[C@@H](C(=O)N[C@H](C(=O)N[C@@H](CCC(=O)O)C(=O)NCC(=O)N[C@@H](CCCCNC(=O)COCCOCCNC(=O)COCCOCCNC(=O)CC[C@H](NC(=O)CCCCCCCCCCCCCCCCC(=O)O)C(=O)O)C(N)=O)[C@@H](C)O)NC(=O)[C@H](CCCNC(=N)N)NC(=O)[C@H](Cc2c[nH]cn2)NC(=O)[C@H](CCC(=O)O)NC(=O)CNC(=O)[C@H](Cc2c[nH]c3ccccc23)NC(=O)[C@H](CC(=O)O)NC(=O)[C@H](CCC(N)=O)NC(=O)[C@H](Cc2c[nH]c3ccccc23)NC(=O)[C@H]([C@@H](C)CC)NC1=O
# B5: Compound 123 (peptide)
# peptide: Ac-SEFCI[Trp(1-Me)]QDWGEHRC[Sar]EGE[AEEA][AEEA]K([γGlu-Gly-γGlu-C18 diacid])-NH2
# modifications: disulfide 4-14
# B6: Compound 152 (peptide)
# peptide: SEFCIWQDWGEHRAGEGEXXK
# modifications: not fully specified; N-acetyl; C-terminal amide; gamma-cystathionine (Ctt1) thioether bridge hCys4-A14 (hCys written C); W6 is 1-Me-Trp; G15 is Sar; X19 and X20 are Peg3; K21 side chain bears [17-carboxy-heptadecanoyl][γGlu]G[γGlu]
# B7: Compound 98 (peptide)
# peptide: Ac-ICIWQDWGEHRCTEGK([AEEA-AEEA-γGlu-C20 diacid])-NH2
# modifications: disulfide 2-12
# SMILES: CC[C@H](C)[C@H](NC(C)=O)C(=O)N[C@H]1CSSC[C@@H](C(=O)N[C@H](C(=O)N[C@@H](CCC(=O)O)C(=O)NCC(=O)N[C@@H](CCCCNC(=O)COCCOCCNC(=O)COCCOCCNC(=O)CC[C@H](NC(=O)CCCCCCCCCCCCCCCCCCC(=O)O)C(=O)O)C(N)=O)[C@@H](C)O)NC(=O)[C@H](CCCNC(=N)N)NC(=O)[C@H](Cc2c[nH]cn2)NC(=O)[C@H](CCC(=O)O)NC(=O)CNC(=O)[C@H](Cc2c[nH]c3ccccc23)NC(=O)[C@H](CC(=O)O)NC(=O)[C@H](CCC(N)=O)NC(=O)[C@H](Cc2c[nH]c3ccccc23)NC(=O)[C@H]([C@@H](C)CC)NC1=O
# B8: Compound 7 (peptide)
# peptide: Ac-ICIWQKWGEHRCT-NH2
# modifications: disulfide 2-12
# SMILES: CC[C@H](C)[C@H](NC(C)=O)C(=O)N[C@H]1CSSC[C@@H](C(=O)N[C@H](C(N)=O)[C@@H](C)O)NC(=O)[C@H](CCCNC(=N)N)NC(=O)[C@H](Cc2c[nH]cn2)NC(=O)[C@H](CCC(=O)O)NC(=O)CNC(=O)[C@H](Cc2c[nH]c3ccccc23)NC(=O)[C@H](CCCCN)NC(=O)[C@H](CCC(N)=O)NC(=O)[C@H](Cc2c[nH]c3ccccc23)NC(=O)[C@H]([C@@H](C)CC)NC1=O
# B9: Compound 101 (peptide)
# peptide: Ac-EGSAICIWQDWGEHRCTEGK([γGlu-C16 diacid])-NH2
# modifications: disulfide 6-16
# SMILES: CC[C@H](C)[C@H](NC(=O)[C@H](C)NC(=O)[C@H](CO)NC(=O)CNC(=O)[C@H](CCC(=O)O)NC(C)=O)C(=O)N[C@H]1CSSC[C@@H](C(=O)N[C@H](C(=O)N[C@@H](CCC(=O)O)C(=O)NCC(=O)N[C@@H](CCCCNC(=O)CC[C@H](NC(=O)CCCCCCCCCCCCCCC(=O)O)C(=O)O)C(N)=O)[C@@H](C)O)NC(=O)[C@H](CCCNC(=N)N)NC(=O)[C@H](Cc2c[nH]cn2)NC(=O)[C@H](CCC(=O)O)NC(=O)CNC(=O)[C@H](Cc2c[nH]c3ccccc23)NC(=O)[C@H](CC(=O)O)NC(=O)[C@H](CCC(N)=O)NC(=O)[C@H](Cc2c[nH]c3ccccc23)NC(=O)[C@H]([C@@H](C)CC)NC1=O
# B10: Compound 94 (peptide)
# peptide: Ac-ICIWQDWGEHRCTEGEK([AEEA-AEEA-γGlu-C16 diacid])-NH2
# modifications: disulfide 2-12
# SMILES: CC[C@H](C)[C@H](NC(C)=O)C(=O)N[C@H]1CSSC[C@@H](C(=O)N[C@H](C(=O)N[C@@H](CCC(=O)O)C(=O)NCC(=O)N[C@@H](CCC(=O)O)C(=O)N[C@@H](CCCCNC(=O)COCCOCCNC(=O)COCCOCCNC(=O)CC[C@H](NC(=O)CCCCCCCCCCCCCCC(=O)O)C(=O)O)C(N)=O)[C@@H](C)O)NC(=O)[C@H](CCCNC(=N)N)NC(=O)[C@H](Cc2c[nH]cn2)NC(=O)[C@H](CCC(=O)O)NC(=O)CNC(=O)[C@H](Cc2c[nH]c3ccccc23)NC(=O)[C@H](CC(=O)O)NC(=O)[C@H](CCC(N)=O)NC(=O)[C@H](Cc2c[nH]c3ccccc23)NC(=O)[C@H]([C@@H](C)CC)NC1=O
# B11: Compound 97 (peptide)
# peptide: Ac-ICIWQDWGEHRCTEGEK([AEEA-AEEA-γGlu-C18 diacid])-NH2
# modifications: disulfide 2-12
# SMILES: CC[C@H](C)[C@H](NC(C)=O)C(=O)N[C@H]1CSSC[C@@H](C(=O)N[C@H](C(=O)N[C@@H](CCC(=O)O)C(=O)NCC(=O)N[C@@H](CCC(=O)O)C(=O)N[C@@H](CCCCNC(=O)COCCOCCNC(=O)COCCOCCNC(=O)CC[C@H](NC(=O)CCCCCCCCCCCCCCCCC(=O)O)C(=O)O)C(N)=O)[C@@H](C)O)NC(=O)[C@H](CCCNC(=N)N)NC(=O)[C@H](Cc2c[nH]cn2)NC(=O)[C@H](CCC(=O)O)NC(=O)CNC(=O)[C@H](Cc2c[nH]c3ccccc23)NC(=O)[C@H](CC(=O)O)NC(=O)[C@H](CCC(N)=O)NC(=O)[C@H](Cc2c[nH]c3ccccc23)NC(=O)[C@H]([C@@H](C)CC)NC1=O
# B12: Compound 118 (peptide)
# peptide: Ac-SEYCI[Trp(1-Me)]QDWGEHRC[Sar]EGAK([AEEA-γGlu-AEEA-Gly-γGlu-C18 diacid])-NH2
# modifications: disulfide 4-14
# SMILES: CC[C@H](C)[C@@H]1NC(=O)[C@@H](NC(=O)[C@H](Cc2ccc(O)cc2)NC(=O)[C@H](CCC(=O)O)NC(=O)[C@H](CO)NC(C)=O)CSSC[C@@H](C(=O)N(C)CC(=O)N[C@@H](CCC(=O)O)C(=O)NCC(=O)N[C@@H](C)C(=O)N[C@@H](CCCCNC(=O)COCCOCCNC(=O)CC[C@H](NC(=O)COCCOCCNC(=O)CNC(=O)CC[C@H](NC(=O)CCCCCCCCCCCCCCCCC(=O)O)C(=O)O)C(=O)O)C(N)=O)NC(=O)[C@H](CCCNC(=N)N)NC(=O)[C@H](Cc2c[nH]cn2)NC(=O)[C@H](CCC(=O)O)NC(=O)CNC(=O)[C@H](Cc2c[nH]c3ccccc23)NC(=O)[C@H](CC(=O)O)NC(=O)[C@H](CCC(N)=O)NC(=O)[C@H](Cc2cn(C)c3ccccc23)NC1=O
# B13: Compound 120 (peptide)
# peptide: Ac-SEFCI[Trp(1-Me)]QEWGEHRC[Sar]EGAK([AEEA-γGlu-AEEA-Gly-γGlu-C18 diacid])-NH2
# modifications: disulfide 4-14
# SMILES: CC[C@H](C)[C@@H]1NC(=O)[C@@H](NC(=O)[C@H](Cc2ccccc2)NC(=O)[C@H](CCC(=O)O)NC(=O)[C@H](CO)NC(C)=O)CSSC[C@@H](C(=O)N(C)CC(=O)N[C@@H](CCC(=O)O)C(=O)NCC(=O)N[C@@H](C)C(=O)N[C@@H](CCCCNC(=O)COCCOCCNC(=O)CC[C@H](NC(=O)COCCOCCNC(=O)CNC(=O)CC[C@H](NC(=O)CCCCCCCCCCCCCCCCC(=O)O)C(=O)O)C(=O)O)C(N)=O)NC(=O)[C@H](CCCNC(=N)N)NC(=O)[C@H](Cc2c[nH]cn2)NC(=O)[C@H](CCC(=O)O)NC(=O)CNC(=O)[C@H](Cc2c[nH]c3ccccc23)NC(=O)[C@H](CCC(=O)O)NC(=O)[C@H](CCC(N)=O)NC(=O)[C@H](Cc2cn(C)c3ccccc23)NC1=O
# B14: Compound 5 (peptide)
# peptide: Ac-ICIWQDWGKHRCT-NH2
# modifications: disulfide 2-12
# SMILES: CC[C@H](C)[C@H](NC(C)=O)C(=O)N[C@H]1CSSC[C@@H](C(=O)N[C@H](C(N)=O)[C@@H](C)O)NC(=O)[C@H](CCCNC(=N)N)NC(=O)[C@H](Cc2c[nH]cn2)NC(=O)[C@H](CCCCN)NC(=O)CNC(=O)[C@H](Cc2c[nH]c3ccccc23)NC(=O)[C@H](CC(=O)O)NC(=O)[C@H](CCC(N)=O)NC(=O)[C@H](Cc2c[nH]c3ccccc23)NC(=O)[C@H]([C@@H](C)CC)NC1=O
# B15: Compound 106 (peptide)
# peptide: Ac-SAYCI[Trp(1-Me)]QDWGEHRC[Sar]EK([γGlu-Gly-γGlu-C18 diacid])-NH2
# modifications: disulfide 4-14
# SMILES: CC[C@H](C)[C@@H]1NC(=O)[C@@H](NC(=O)[C@H](Cc2ccc(O)cc2)NC(=O)[C@H](C)NC(=O)[C@H](CO)NC(C)=O)CSSC[C@@H](C(=O)N(C)CC(=O)N[C@@H](CCC(=O)O)C(=O)N[C@@H](CCCCNC(=O)CC[C@H](NC(=O)CNC(=O)CC[C@H](NC(=O)CCCCCCCCCCCCCCCCC(=O)O)C(=O)O)C(=O)O)C(N)=O)NC(=O)[C@H](CCCNC(=N)N)NC(=O)[C@H](Cc2c[nH]cn2)NC(=O)[C@H](CCC(=O)O)NC(=O)CNC(=O)[C@H](Cc2c[nH]c3ccccc23)NC(=O)[C@H](CC(=O)O)NC(=O)[C@H](CCC(N)=O)NC(=O)[C@H](Cc2cn(C)c3ccccc23)NC1=O
# B16: Compound 99 (peptide)
# peptide: {15‑Carboxy‑pentadecanoyl}-ESSAICIWQDWGEHRCTEGE-NH2
# modifications: disulfide 6-16
# Molecular target: Human C3 (human, UniProt P01024 23-1663)
# Experiment: cell-based or functional assay
# Sequence of Human C3 (P01024 23-1663 limits assumed): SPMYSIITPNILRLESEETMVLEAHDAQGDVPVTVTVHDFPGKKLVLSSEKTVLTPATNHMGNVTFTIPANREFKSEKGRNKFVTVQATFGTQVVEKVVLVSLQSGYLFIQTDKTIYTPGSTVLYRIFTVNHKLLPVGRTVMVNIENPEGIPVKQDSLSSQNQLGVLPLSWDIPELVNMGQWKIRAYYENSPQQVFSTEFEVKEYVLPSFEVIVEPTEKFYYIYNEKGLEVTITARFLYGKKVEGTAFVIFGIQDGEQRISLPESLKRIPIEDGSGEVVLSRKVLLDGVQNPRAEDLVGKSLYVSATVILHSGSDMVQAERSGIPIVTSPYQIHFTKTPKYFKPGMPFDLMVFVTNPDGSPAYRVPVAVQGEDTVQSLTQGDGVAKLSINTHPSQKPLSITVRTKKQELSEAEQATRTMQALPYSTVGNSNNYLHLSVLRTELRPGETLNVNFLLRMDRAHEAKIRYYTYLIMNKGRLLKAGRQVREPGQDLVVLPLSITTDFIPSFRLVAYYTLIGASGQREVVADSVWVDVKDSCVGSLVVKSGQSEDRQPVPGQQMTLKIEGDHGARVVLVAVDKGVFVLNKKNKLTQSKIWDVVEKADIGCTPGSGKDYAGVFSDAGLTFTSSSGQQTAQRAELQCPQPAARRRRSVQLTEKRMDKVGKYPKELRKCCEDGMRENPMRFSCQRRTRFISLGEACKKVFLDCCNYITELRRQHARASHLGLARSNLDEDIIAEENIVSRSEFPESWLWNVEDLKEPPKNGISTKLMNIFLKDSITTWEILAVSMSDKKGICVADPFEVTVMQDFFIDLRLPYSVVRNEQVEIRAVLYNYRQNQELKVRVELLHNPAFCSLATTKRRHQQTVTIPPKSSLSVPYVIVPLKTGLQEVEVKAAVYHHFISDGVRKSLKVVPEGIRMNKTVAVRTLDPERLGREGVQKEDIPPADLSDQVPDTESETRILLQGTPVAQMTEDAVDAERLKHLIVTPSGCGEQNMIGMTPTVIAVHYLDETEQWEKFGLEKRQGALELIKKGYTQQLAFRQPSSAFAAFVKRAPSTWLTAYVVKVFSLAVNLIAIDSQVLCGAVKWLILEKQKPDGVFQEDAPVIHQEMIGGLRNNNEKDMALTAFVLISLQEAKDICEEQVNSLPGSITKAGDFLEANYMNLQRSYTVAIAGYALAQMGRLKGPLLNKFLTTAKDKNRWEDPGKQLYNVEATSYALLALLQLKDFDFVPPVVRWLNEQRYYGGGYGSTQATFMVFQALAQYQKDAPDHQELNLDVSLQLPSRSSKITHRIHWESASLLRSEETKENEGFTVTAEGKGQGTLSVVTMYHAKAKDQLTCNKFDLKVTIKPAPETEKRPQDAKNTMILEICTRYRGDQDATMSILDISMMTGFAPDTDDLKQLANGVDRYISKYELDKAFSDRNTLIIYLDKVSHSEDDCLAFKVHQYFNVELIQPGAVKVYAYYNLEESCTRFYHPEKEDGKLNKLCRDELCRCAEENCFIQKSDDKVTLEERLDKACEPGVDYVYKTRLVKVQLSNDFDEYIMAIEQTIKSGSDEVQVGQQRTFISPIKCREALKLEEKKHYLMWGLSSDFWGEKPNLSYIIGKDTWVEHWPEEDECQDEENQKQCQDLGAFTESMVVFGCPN
row,Binder,"IC50[nM], inhibition of hemolysis"
1,B1,< 100 nM
2,B2,< 500 nM
3,B3,< 100 nM
4,B4,< 1000 nM
5,B5,< 100 nM
6,B6,< 100 nM
7,B7,< 500 nM
8,B8,< 1000 nM
9,B9,< 500 nM
10,B10,< 500 nM
11,B11,< 250 nM
12,B12,< 100 nM
13,B13,< 250 nM
14,B14,< 250 nM
15,B15,< 250 nM
16,B16,< 250 nM

# From US20220306695A1, “COMPSTATIN ANALOGUES AND THEIR MEDICAL USES” (priority 2019, published 2022)
